According to article PMC4820614:

Target: T1, full-length rat TRPV2 (rat), Q9WUD2
T1 chain: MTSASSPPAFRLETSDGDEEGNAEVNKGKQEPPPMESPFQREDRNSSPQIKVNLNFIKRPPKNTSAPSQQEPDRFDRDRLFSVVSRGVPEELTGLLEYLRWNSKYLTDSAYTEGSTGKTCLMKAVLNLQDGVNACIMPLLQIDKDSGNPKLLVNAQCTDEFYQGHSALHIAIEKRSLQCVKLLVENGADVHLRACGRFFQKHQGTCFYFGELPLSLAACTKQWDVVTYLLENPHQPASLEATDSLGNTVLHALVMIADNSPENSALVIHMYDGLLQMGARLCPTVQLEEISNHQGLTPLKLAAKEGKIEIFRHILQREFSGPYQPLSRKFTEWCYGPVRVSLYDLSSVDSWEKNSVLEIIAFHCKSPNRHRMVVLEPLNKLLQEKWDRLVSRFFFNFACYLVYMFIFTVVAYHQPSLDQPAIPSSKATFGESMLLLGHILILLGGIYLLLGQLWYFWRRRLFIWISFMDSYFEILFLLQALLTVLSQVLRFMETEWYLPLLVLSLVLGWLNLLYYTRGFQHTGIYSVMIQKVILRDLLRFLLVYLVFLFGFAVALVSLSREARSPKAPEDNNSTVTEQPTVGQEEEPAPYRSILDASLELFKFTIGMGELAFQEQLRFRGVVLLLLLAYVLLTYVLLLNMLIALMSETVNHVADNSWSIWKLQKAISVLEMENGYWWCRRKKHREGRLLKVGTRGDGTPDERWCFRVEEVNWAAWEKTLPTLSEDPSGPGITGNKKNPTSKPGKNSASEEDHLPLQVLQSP
Assay: cryo-EM structure; single particle cryo-EM of purified rat TRPV2 without ligand, 2.5 mg/ml, in decyl MNG, 150 mM NaCl, 20 mM HEPES pH 8.0, 1.0 mM DTT; no added lipids
Conditions: remark: other sources report otherwise

stoichiometry N: 4
B1: full-length rat TRPV2, Q9WUD2 1-761 (natural protein)
chain: MTSASSPPAFRLETSDGDEEGNAEVNKGKQEPPPMESPFQREDRNSSPQIKVNLNFIKRPPKNTSAPSQQEPDRFDRDRLFSVVSRGVPEELTGLLEYLRWNSKYLTDSAYTEGSTGKTCLMKAVLNLQDGVNACIMPLLQIDKDSGNPKLLVNAQCTDEFYQGHSALHIAIEKRSLQCVKLLVENGADVHLRACGRFFQKHQGTCFYFGELPLSLAACTKQWDVVTYLLENPHQPASLEATDSLGNTVLHALVMIADNSPENSALVIHMYDGLLQMGARLCPTVQLEEISNHQGLTPLKLAAKEGKIEIFRHILQREFSGPYQPLSRKFTEWCYGPVRVSLYDLSSVDSWEKNSVLEIIAFHCKSPNRHRMVVLEPLNKLLQEKWDRLVSRFFFNFACYLVYMFIFTVVAYHQPSLDQPAIPSSKATFGESMLLLGHILILLGGIYLLLGQLWYFWRRRLFIWISFMDSYFEILFLLQALLTVLSQVLRFMETEWYLPLLVLSLVLGWLNLLYYTRGFQHTGIYSVMIQKVILRDLLRFLLVYLVFLFGFAVALVSLSREARSPKAPEDNNSTVTEQPTVGQEEEPAPYRSILDASLELFKFTIGMGELAFQEQLRFRGVVLLLLLAYVLLTYVLLLNMLIALMSETVNHVADNSWSIWKLQKAISVLEMENGYWWCRRKKHREGRLLKVGTRGDGTPDERWCFRVEEVNWAAWEKTLPTLSEDPSGPGITGNKKNPTSKPGKNSASEEDHLPLQVLQSP
